Assay results from patent US20190201487.

Molecular target: T1, neonatal NET-Inhibitory Factor (nNIF)
T1 chain: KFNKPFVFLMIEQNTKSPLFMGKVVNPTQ

B1: neutrophil elastase (NE) (protein)
chain: IVGGRRARPHAWPFMVSLQLRGGHFCGATLIAPNFVMSAAHCVANVNVRAVRVVLGAHNLSRREPTRQVFAVQRIFENGYDPVNLLNDIVILQLNGSATINANVQVAQLPAQGRRLGNGVQCLAMGWGLLGRNRGIASVLQELNVTVVTSLCRRSNVCTLVRGRQAGVCFGDSGSPLVCNGLIHGIASFVRGGCASGLYPDAFAPVAQFVNWIDSIIQ
NE enzyme activity in vitro (cleavage of (MeOSuc)-AAPV-(pNA)): neither nNIF nor CRISPP inhibited NE activity
